Key:
[1] = target: SORLA with C-terminal fusion of the C-terminal fragment of venus fluorescent protein (human) (UniProt Q92673); experiment: cell-based or functional assay
[2] = target: full-length SORLA with C-terminal GFP-tag (human) (UniProt Q92673); experiment: cell-based or functional assay

SORLA with C-terminal fusion of the N-terminal fragment of venus fluorescent protein, Q92673 82-2214
Mander's coefficient, overlap between the green venus signal specific for SORLA dimers and the total SORLA pool [1]: 0.37

full-length SORLA with C-terminal FLAG-tag, Q92673 82-2214
Mander's coefficient, co-localization between the PLA signal (representing SORLA dimers) and SORLA-GFP (representing both monomers and dimers) [2]: 0.35
